No end group written: not given here.

This experiment has as its target T1, purified IKKγ (human, UniProt Q9Y6K9 1-419, limits assumed).
T1 construct: also called NEMO
Nature of the experiment: GST pull-down of purified IKKγ with GST-MUC1-CD fragments on glutathione beads, anti-IKKγ immunoblot (FIG. 5C). The source says: FIG. 5C is a pair of photographs of immunoblots. […] The precipitates were immunoblotted (IB) with anti-IKKγ antibody. […] The molecular weights of proteins (as indicated on the left of the photographs) are expressed as kilodaltons (kDa).
A general note: A western blot detects proteins with antibodies after separation by electrophoresis.

T1 sequence (Q9Y6K9 whole entry): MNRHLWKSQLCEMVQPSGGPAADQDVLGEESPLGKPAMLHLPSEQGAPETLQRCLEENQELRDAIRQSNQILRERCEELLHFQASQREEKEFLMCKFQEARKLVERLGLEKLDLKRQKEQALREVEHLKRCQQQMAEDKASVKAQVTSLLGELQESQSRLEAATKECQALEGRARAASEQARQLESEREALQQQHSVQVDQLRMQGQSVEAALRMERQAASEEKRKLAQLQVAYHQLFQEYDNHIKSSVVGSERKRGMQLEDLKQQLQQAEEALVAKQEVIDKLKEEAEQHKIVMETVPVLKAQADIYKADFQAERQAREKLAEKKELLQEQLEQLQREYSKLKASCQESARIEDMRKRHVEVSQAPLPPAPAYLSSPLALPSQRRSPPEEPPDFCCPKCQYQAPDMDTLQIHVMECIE

B1: GST-MUC1-CD(1-45) (other)
chain: CQCRRKNYGQLDIFPARDTYHPMSEYPTYHTHGRYVPPSSTDRSP
modifications: cysteine pairing not given here; also: GST fusion, GST sequence and linker not given here
notes: not shown: glutathione S-transferase (GST) tag
For B1, the binding result is recorded as “no binding”.

The values are drawn from patent US20080241125A1 (Dana-Farber, published 2008).
